Test results from PMC10065799, “High-throughput profiling of sequence recognition by tyrosine kinases and SH2 domains using bacterial peptide display” (eLife, 2023).

What was measured:
FGFR1 kinase domain = test: LC-MS assay of intact SHP2 protein phosphorylation; type: biochemical, human; settings: SHP2 10 μM, kinase 1 μM, 1 hr, 37 °C, 2 to 3 measurements
Experimental: (§1) The same protocol used to express and purify SH2 domains, excluding co-expression of BirA and addition of biotin, was applied to the expression and purification of the SHP2 variants.
(§2) To pre-activate the kinases, 1 μM of each purified kinase domain was preincubated at 37 °C for 30 min in the same buffer conditions used in the kinase domain peptide display screen, with 1 mM ATP. The reaction of the kinase with SHP2 was initiated with the addition of 10 μM SHP2, and the mixture was incubated in 37 °C for 1 hr. To terminate the reaction, the mixture was quenched with 200 mM EDTA. The reaction mixture was diluted 3:2 in water and injected onto a BEH C8 column (Waters) on a UPLC-MS system (Xevo QToF, Waters). Reverse-phase liquid chromatography was carried out at 0.3 mL/min with solvents A (H2O, 0.1% (v/v) formic acid) and B (acetonitrile, 0.1% (v/v) formic acid). Proteins were eluted over a gradient of 5–95% B for 8.5 min. The protein peak on the chromatogram was deconvoluted using the MaxEnt1 algorithm from 32,000–65,000 Da with a resolution of 1 Da/channel over 30 iterations. Peaks were chosen according to the theoretical MW of the protein within a range of 5 Da, and integrated for the signal intensity.

Fyn kinase domain = test: LC-MS assay of intact SHP2 protein phosphorylation; type: biochemical, human; settings: SHP2 10 μM, kinase 1 μM, 1 hr, 37 °C, 2 to 3 measurements
Experimental: as §1, §2

phosphorylation of intact SHP2 by FGFR1 (FGFR1 kinase domain): dramatically enhanced phosphorylation
phosphorylation of intact SHP2 by Fyn (Fyn kinase domain): dramatically enhanced phosphorylation
B1: SHP2 D61V: human full-length SHP2 (residues 1–526; C459E, D61V) (protein, UniProt Q06124 2-593, looked up, variant C459E D61V)
Tyrosine-protein phosphatase …: TSRRWFHPNITGVEAENLLLTRGVDGSFLARPSKSNPGDFTLSVRRNGAVTHIKIQNTGVYYDLYGGEKFATLAELVQYYMEHHGQLKEKNGDVIELKYPLNCADPTSERWFHGHLSGKEAEKLLTEKGKHGSFLVRESQSHPGDFVLSVRTGDDKGESNDGKSKVTHVMIRCQELKYDVGGGERFDSLTDLVEHYKKNPMVETLGTVLQLKQPLNTTRINAAEIESRVRELSKLAETTDKVKQGFWEEFETLQQQECKLLYSRKEGQRQENKNKNRYKNILPFDHTRVVLHDGDPNEPVSDYINANIIMPEFETKCNNSKPKKSYIATQGCLQNTVNDFWRMVFQENSRVIVMTTKEVERGKSKCVKYWPDEYALKEYGVMRVRNVKESAAHDYTLRELKLSKVGQGNTERTVWQYHFRTWPDHGVPSDPGGVLDFLEEVHHKQESIMDAGPVVVHESAGIGRTGTFIVIDILIDIIREKGVDCDIDVPKTIQMVRSQRSGMVQTEAQYRFIYMAVQHYIETLQRRIEEEQKSKRKGHEYTNIKYSLADQTSGDQSPLPPCTPTPPCAEMREDSARVYENVGLMQQQKSFR
